Numbering of substitutions follows the chain as printed. Names may count otherwise.

The subject of assay [1] is PF4 receptor. Put plainly: PF4 receptor activation by PF4-derived peptides.
Assay [2] relates to PF4 receptor. Nature of the assay: PF4 receptor binding / competition of PF4-derived peptides.
For assay [3], the system named is HUVEC. Nature of the assay: Angiogenic activity of mutant PF4 polypeptides in HUVEC cells. The conditions noted are these: for antiangiogenic properties/activity of PF4 (effect of the mutation): Table 4 column Function. The assay is classed as cell-based, Human. The procedure: (§1) Inhibition of DNA synthesis was measured by [^3H]-thymidine incorporation assay. Cells were plated at 15,000 cells per well in a 24 well-plate in 0.5 ml medium containing 2.5% FCS and allowed to attach for 4 hours at 37° C. Proliferation was then induced by addition of 10 ng/ml of FGF-2, VEGF165 or VEGF121. Increasing concentrations of purified recombinant PF4 proteins were added to some wells and HUVEC were further incubated for 48 hours. [^3H]-thymidine (1 μCi/well) was added during the last 20 hours of incubation. Cells were washed twice with PBS and treated with ice-cold 10% (w/v) trichloroacetic acid for 30 minutes. The resulting precipitates were solubilized with 1 M NaOH and incorporated radioactivity was measured in a Beckman LS-6500 multi-purpose scintillation counter.
HUVEC migration was evaluated in a modified Boyden chamber assay. Transwell cell culture chamber inserts with porous polycarbonate filters ([…]) were coated with 0.2% gelatin. HUVEC suspended in medium supplemented with 2.5% FCS were added to the inserts at 4×10^4 cells per well. The inserts were placed over chambers containing a chemotactic stimulus (10 ng/ml VEGF165), and cells were allowed to migrate for 4 hours at 37° C. in a CO2 incubator. For inhibition experiments, recombinant PF4 proteins were added to both the lower and upper chambers. After incubation, filters were rinsed with PBS, fixed with 1% paraformaldehyde and stained with hematoxyline of Harris (EMD Chemicals Inc. Gibbstown, N.J.).
(§2) The upper surfaces of the filters was scraped with a cotton swab to remove the nonmigrant cells. The […] in a optical microscope at high powered (×200) magnification, and the number of cells within the microscope visualization field was recorded. Each experimental point was performed in triplicate, and 20 visual fields were analyzed per filter.
Next, the PF4 surface was mapped using site-directed mutagenesis. In particular, a series of mutant PF4 polypeptides was generated, and their angiogenic activity in HUVEC cells was investigated using assays such as those described in Section 6.1, above. Table 3 below lists amino acid sequences of the PF4 polypeptides generated, along with each polypeptide designation and sequence identification number (SEQ ID NO.). The first sequence, which is designated WTPF4, corresponds to the wild-type, mature PF4 amino acid sequence that is also depicted in FIG. 1C (SEQ ID NO:1). The other sequences depicted in Table 3 comprise one or more amino acid substitutions, indicated by bold-faced, underlined type in the amino acid sequence.

The test system of assay [4] is HUVEC. Put plainly: Endothelial cell proliferation assay ([3H]-thymidine incorporation). The format is cell-based, Human. The conditions noted are these: stimulus not given. Here is the method: (§3) Human umbilical vein endothelial cells (HUVEC) were isolated by collagenase (Roche Diagnostics) digestion as described previously (Jaffe et al., J Clin Invest. 1973; 85(11):2745-56).
(§4) Cells were grown in M199 medium containing 15% fetal calf serum (FCS), 5% human serum, 2 mM glutamine, 50 U/ml penicillin, 50 μg/ml streptomycin, 2.5 μg/ml amphotericin B, and 15 mM HEPES. Cultures were maintained at 37° C. amd 5% CO2 in humidified atmosphere. Every 3-4 days, the cultures were harvested by trypsin treatment, diluted, replated and grown to confluence. HUVEC grown until confluence from the second or third passage are preferably used for experiments described here.
as §1, with “Cells were washed twice with PBS and treated with ice-cold 10% (w/v) trichloroacetic acid for 30 minutes.” left out
For orientation: Incorporation of labelled thymidine or its analogues reports DNA synthesis.

The subject of assay [5] is HUVEC. Nature of the assay: HUVEC migration assay (modified Boyden chamber). The assay is classed as cell-based, Human. The procedure: as §3, §4
HUVEC migration was evaluated in a modified Boyden chamber assay. Transwell cell culture chamber inserts with porous polycarbonate filters ([…]) were coated with 0.2% gelatin. HUVEC suspended in medium supplemented with 2.5% FCS were added to the inserts at 4×10^4 cells per well. […]
as §2

As to “P34-53: peptide PHSPTAQLIATLKNGRKISL (SEQ ID NO:159), derived from residues 34-53 of mature PF4 [Mutant P34-53]”, in assay [1], the “activation of PF4 receptor” value is listed as “does not activate”. The “competition against P34-56 for target binding” value in assay [2] (competitor P34-56) is listed as “effectively competes”. The “competition with PF4 for binding to the PF4 receptor” value in assay [2] (competitor PF4) was “effectively competes”.

With “P34-56: peptide PHSPTAQLIATLKNGRKISLDLQ (SEQ ID NO:157), derived from residues 34-56 of mature PF4 [Mutant P34-56]”, the “activation of PF4 receptor” value in assay [1] is “activate”. Further, in assay [2], the “binding to PF4 receptor” value is “bind to”.

Take “P35-53: peptide PSPTAQLIATLKNGRKISL (SEQ ID NO:160), P34-53 with His2 removed [Mutant P35-53]”: the “activation of PF4 receptor” value in assay [1] is listed as “does not bind to or activate”. Besides, the “binding to PF4 receptor” value in assay [2] is “does not bind to”.

Consider “P37-56: peptide PTAQLIATLKNGRKISLDLQ (SEQ ID NO:158), P34-56 without capping box [Mutant P37-56]”, for which the “activation of PF4 receptor” value in assay [1] is on record as “does not activate”.

B1: PF4-M10H: mutant PF4 polypeptide SEQ ID NO:19; single mutant T47A, without HBD (protein, listed as Homo sapiens)
chain: EAEEDGDLQCLCVKTASQVRPRHITSLEVIKAGPHCPTAQLIATLKNGRKICLDLQAPLYQEIIQELLES
On to B1, for which the “antiangiogenic properties/activity of PF4 (effect of the mutation)” value (“antiangiogenic properties/activity” for short) in assay [3] is “Mutation does not suppress”.

B2: PF4-M3: mutant PF4 polypeptide SEQ ID NO:5; DLQ motif replaced by IL8-like motif, carrying HBD (protein, listed as Homo sapiens)
chain: B1 chain with Q9R, A16T, Q61K, E62K, Q65K, E66K
In the case of B2, the “effect on HUVEC compared with WTPF4” value in assay [3] is listed as “sulfate. It has the same effect”.

B3: PF4-M2H: mutant PF4 polypeptide SEQ ID NO:4; tests importance of Cys residues (protein, listed as Homo sapiens)
chain: B1 chain with C10S, A16T, C36S
For B3, the “antiangiogenic properties/activity” value in assay [3] is “Complete loss of activity due”.

B4: PF4-M2: mutant PF4 polypeptide SEQ ID NO:3; tests importance of Cys residues (protein, listed as Homo sapiens)
chain: B1 chain with C10S, A16T, C36S, Q61K, E62K, Q65K, E66K
B4: the “antiangiogenic properties/activity” value in assay [3] was “Complete loss of activity due”.

B5: PF4-M5: mutant PF4 polypeptide SEQ ID NO:9; triple mutant L42S, V44Q, T47A carrying HBD (protein, listed as Homo sapiens)
chain: B1 chain with L11S, V13Q, Q61K, E62K, Q65K, E66K
In the case of B5, the “antiangiogenic properties/activity” value in assay [3] is “Mutation decreases the”.

B6: PF4-M3H: mutant PF4 polypeptide SEQ ID NO:6; PF4-M3 mutant without HBD (protein, listed as Homo sapiens)
chain: B1 chain with Q9R, A16T
Consider B6, for which the “antiangiogenic properties/activity” value in assay [3] was “cancels the antiangiogenic”. Moreover, in assay [4], the “inhibition of the proliferation of HUVEC cells” value is “This mutant cannot inhibit”. For the same molecule, the “inhibition of cell migration (HUVEC)” value in assay [5] is listed as “This mutant cannot inhibit”.

B7: PF4-M5H: mutant PF4 polypeptide SEQ ID NO:10; triple mutant L42S, V44Q, T47A, without HBD (protein, listed as Homo sapiens)
chain: B1 chain with L11S, V13Q
As to B7, the “antiangiogenic properties/activity” value in assay [3] was “Decreases the antiangiogenic”.

B8: PF4-M6: mutant PF4 polypeptide SEQ ID NO:11; triple mutant Q49A, V50S, H54A carrying HBD (protein, listed as Homo sapiens)
chain: B1 chain with A16T, Q18A, V19S, H23A, Q61K, E62K, Q65K, E66K
B8: the “antiangiogenic properties/activity” value in assay [3] is recorded as “Mutation decreases the”.

B9: PF4-M13H: mutant PF4 polypeptide SEQ ID NO:25; single mutant V50S, without HBD (protein, listed as Homo sapiens)
chain: B1 chain with A16T, V19S
Regarding B9, the “antiangiogenic properties/activity” value in assay [3] is given as “Mutation does not suppress”.

B10: PF4-M1: mutant PF4 polypeptide SEQ ID NO:2; heparan sulfate binding domain (HBD) absent (protein, listed as Homo sapiens)
chain: B1 chain with A16T
As for B10, in assay [3], the “antiangiogenic properties/activity” value is listed as “PF4-M1 is antiangiogenic”. Moreover, in assay [5], the “inhibition of cell migration (HUVEC)” value is “PF4-M1 also inhibits cell”.
